From article PMC9723622, “PARP1 proximity proteomics reveals interaction partners at stressed replication forks” (Nucleic Acids Research, 2022)

Target: T1, recombinant PARP1 (human, UniProt P09874 1-1014)
T1 construct: PARP1, recombinant; also called purified PARP1; source: recombinant, purified
Test: pull-down; His-GFP-TPX2 proteins immobilised on GFP-Trap beads, equimolar recombinant PARP1 added, 2 h 4°C; 20 mM Tris-HCl pH 7.5, 250 mM NaCl, 0.2% glycerol, 0.2% Triton X-100; Western blot
Conditions: both partners purified

T1 sequence (P09874 whole entry): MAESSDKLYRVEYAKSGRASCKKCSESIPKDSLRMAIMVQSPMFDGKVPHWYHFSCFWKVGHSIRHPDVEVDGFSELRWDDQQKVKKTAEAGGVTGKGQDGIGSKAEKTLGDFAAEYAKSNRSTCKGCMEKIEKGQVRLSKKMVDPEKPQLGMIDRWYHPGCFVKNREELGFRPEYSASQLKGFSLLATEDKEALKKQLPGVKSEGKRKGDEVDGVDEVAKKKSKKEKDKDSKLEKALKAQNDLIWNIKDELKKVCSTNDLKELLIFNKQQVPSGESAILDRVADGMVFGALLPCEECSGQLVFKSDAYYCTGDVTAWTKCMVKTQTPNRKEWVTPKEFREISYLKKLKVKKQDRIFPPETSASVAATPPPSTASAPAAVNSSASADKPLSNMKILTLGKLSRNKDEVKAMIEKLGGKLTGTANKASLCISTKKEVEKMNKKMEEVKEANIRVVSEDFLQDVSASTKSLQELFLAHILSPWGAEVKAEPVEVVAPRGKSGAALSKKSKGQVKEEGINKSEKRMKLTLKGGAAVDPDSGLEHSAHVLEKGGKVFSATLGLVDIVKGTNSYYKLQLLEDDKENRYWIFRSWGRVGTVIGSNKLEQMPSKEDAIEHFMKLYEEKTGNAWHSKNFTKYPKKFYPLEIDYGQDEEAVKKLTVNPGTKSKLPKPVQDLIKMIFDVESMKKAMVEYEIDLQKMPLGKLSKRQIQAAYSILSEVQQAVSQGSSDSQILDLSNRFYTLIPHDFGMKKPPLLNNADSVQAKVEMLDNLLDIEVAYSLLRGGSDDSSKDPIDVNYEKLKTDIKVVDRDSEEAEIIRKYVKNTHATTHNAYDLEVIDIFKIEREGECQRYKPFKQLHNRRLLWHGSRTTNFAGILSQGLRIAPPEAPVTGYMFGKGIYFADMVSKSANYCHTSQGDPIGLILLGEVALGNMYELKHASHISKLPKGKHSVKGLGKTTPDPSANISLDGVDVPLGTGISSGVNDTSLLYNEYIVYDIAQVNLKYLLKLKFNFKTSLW

B1: His-GFP-tagged TPX2 N-terminal part (1–254 amino acids), recombinant (domain or fragment, UniProt Q9ULW0 1-254, looked up)
chain: MSQVKSSYSYDAPSDFINFSSLDDEGDTQNIDSWFEEKANLENKLLGKNGTGGLFQGKTPLRKANLQQAIVTPLKPVDNTYYKEAEKENLVEQSIPSNACSSLEVEAAISRKTPAQPQRRSLRLSAQKDLEQKEKHHVKMKAKRCATPVIIDEILPSKKMKVSNNKKKPEEEGSAHQDTAEKNASSPEKAKGRHTVPCMPPAKQKFLKSTEEQELEKSMKMQQEVVEMRKKNEEFKKLALAGIGQPVKKSVSQV
notes: also called TPX2_254only; source: recombinant, purified
binding result: binds

B2: His-GFP-tagged TPX2 full-length protein (recombinant) (natural protein, UniProt Q9ULW0 1-747, looked up)
chain: MSQVKSSYSYDAPSDFINFSSLDDEGDTQNIDSWFEEKANLENKLLGKNGTGGLFQGKTPLRKANLQQAIVTPLKPVDNTYYKEAEKENLVEQSIPSNACSSLEVEAAISRKTPAQPQRRSLRLSAQKDLEQKEKHHVKMKAKRCATPVIIDEILPSKKMKVSNNKKKPEEEGSAHQDTAEKNASSPEKAKGRHTVPCMPPAKQKFLKSTEEQELEKSMKMQQEVVEMRKKNEEFKKLALAGIGQPVKKSVSQVTKSVDFHFRTDERIKQHPKNQEEYKEVNFTSELRKHPSSPARVTKGCTIVKPFNLSQGKKRTFDETVSTYVPLAQQVEDFHKRTPNRYHLRSKKDDINLLPSKSSVTKICRDPQTPVLQTKHRARAVTCKSTAELEAEELEKLQQYKFKARELDPRILEGGPILPKKPPVKPPTEPIGFDLEIEKRIQERESKKKTEDEHFEFHSRPCPTKILEDVVGVPEKKVLPITVPKSPAFALKNRIRMPTKEDEEEDEPVVIKAQPVPHYGVPFKPQIPEARTVEICPFSFDSRDKERQLQKEKKIKELQKGEVPKFKALPLPHFDTINLPEKKVKNVTQIEPFCLETDRRGALKAQTWKHQLEEELRQQKEAACFKARPNTVISQEPFVPKKEKKSVAEGLSGSLVQEPFQLATEKRAKERQELEKRMAEVEAQKAQQLEEARLQEEEQKKEELARLRRELVHKANPIRKYQGLEIKSSDQPLTVPVSPKFSTRFHC
notes: TPX2, full length; also called recombinant TPX2; full-length TPX2; source: recombinant, purified
binding result: binds
